Experimental data reported in patent US20240182596A1 (TUBULIS, published 2024).

T1: FcγRIIa (CD32) (H131) (Fused to the SmBiT luciferase fragment (Promega Lumit reagent), not carried in the letters)
T1 construct: m20 joins both polymorphic variants; also called H131 variant of m20; not shown: SmBiT tag (and any linker or purification tag) of Promega's FcγR-SmBiT fusion
T1 chain: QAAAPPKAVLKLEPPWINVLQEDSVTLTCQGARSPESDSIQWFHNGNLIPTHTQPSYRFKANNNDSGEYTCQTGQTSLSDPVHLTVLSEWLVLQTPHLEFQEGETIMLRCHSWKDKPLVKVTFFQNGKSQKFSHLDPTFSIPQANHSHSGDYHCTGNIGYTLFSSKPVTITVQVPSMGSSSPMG

T2: purified recombinant human Napi2b antigen consisting of Napi2b-extracellular-loop2 expressed as … (human, UniProt O95436 234-362, limits assumed)
T2 construct: Expressed in Expi-HEK293 cells; also called immobilized human NaPi2B; not shown: Fc part; 6-His tag
T2 sequence: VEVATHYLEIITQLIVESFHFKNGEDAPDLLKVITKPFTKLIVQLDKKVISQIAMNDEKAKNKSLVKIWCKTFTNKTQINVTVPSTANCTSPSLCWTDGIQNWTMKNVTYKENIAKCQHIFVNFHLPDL

T3: HEK293 cyno-NaPi2B-mCherry (Macaca fascicularis, UniProt A0A2K5UHY1)
T3 construct: full-length mCherry fusion stably expressed on HEK293 cells; also called cynomolgus full-length NaPi2b-mCherry on HEK293 cells
T3 sequence (target on cells): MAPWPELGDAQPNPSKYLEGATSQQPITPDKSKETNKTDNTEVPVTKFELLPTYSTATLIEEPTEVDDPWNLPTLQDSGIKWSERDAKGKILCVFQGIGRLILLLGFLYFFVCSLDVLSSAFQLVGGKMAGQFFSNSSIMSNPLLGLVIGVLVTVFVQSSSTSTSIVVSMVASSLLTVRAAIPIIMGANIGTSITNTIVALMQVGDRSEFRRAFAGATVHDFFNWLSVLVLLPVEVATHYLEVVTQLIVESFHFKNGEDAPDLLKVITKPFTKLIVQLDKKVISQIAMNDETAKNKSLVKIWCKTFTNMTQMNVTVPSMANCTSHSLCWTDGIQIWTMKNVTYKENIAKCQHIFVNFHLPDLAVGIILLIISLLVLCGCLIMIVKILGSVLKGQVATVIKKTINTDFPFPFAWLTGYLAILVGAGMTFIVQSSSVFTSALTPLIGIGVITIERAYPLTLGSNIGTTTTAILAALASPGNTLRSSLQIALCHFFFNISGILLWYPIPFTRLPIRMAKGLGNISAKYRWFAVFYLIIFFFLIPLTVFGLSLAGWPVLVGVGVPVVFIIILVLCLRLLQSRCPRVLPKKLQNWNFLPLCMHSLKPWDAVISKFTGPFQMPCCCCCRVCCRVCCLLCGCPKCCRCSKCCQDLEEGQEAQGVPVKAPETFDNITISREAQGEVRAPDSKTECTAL

T4: human Napi2b-mCherry on HEK293 cells (human, UniProt O95436 1-690)
T4 construct: also called Napi2b (SLC34A2); HEK293 cells overexpressing Napi2b
T4 sequence: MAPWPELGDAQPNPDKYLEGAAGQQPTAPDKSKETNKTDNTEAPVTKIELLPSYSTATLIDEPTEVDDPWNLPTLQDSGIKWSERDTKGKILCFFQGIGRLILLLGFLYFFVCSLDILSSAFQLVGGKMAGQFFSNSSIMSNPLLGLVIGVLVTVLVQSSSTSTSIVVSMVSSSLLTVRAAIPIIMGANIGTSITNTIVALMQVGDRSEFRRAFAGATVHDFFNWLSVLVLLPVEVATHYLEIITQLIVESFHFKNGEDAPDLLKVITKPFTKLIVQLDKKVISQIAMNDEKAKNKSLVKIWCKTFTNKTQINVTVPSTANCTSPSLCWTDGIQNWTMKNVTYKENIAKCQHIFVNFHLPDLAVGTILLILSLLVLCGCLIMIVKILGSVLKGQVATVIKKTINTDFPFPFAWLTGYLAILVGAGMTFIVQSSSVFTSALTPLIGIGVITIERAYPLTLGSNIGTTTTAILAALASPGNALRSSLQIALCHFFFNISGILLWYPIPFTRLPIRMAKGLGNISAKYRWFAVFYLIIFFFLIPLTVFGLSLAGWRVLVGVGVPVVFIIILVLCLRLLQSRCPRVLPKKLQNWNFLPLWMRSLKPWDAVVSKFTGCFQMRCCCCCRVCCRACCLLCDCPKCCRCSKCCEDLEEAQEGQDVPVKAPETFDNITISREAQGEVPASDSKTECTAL

T5: human NaPi2b on NaPi2b-positive cell lines OVCAR-3 and HCC-78 (human, UniProt O95436 1-690)
T5 construct: Endogenous protein
T5 sequence: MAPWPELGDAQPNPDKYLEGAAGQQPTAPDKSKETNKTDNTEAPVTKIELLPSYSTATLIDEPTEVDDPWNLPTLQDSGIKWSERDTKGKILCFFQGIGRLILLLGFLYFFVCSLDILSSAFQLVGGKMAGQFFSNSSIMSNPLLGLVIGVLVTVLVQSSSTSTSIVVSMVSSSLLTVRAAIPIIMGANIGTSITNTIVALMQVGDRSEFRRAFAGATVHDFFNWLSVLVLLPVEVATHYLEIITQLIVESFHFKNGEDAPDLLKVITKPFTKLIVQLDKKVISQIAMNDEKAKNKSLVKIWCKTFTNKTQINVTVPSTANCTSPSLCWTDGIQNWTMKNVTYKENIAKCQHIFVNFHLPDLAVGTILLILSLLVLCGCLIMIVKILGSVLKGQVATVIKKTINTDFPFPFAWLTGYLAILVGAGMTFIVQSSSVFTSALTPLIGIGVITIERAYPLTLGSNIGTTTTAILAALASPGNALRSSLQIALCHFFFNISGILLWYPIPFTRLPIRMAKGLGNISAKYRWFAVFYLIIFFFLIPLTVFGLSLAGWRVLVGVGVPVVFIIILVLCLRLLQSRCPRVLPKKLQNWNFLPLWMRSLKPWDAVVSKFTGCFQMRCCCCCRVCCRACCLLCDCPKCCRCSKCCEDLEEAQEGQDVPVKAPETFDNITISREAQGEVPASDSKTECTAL

T6: HEK293 rat-NaPi2B-mCherry (Rattus norvegicus, UniProt Q9JJ09)
T6 construct: full-length mCherry fusion stably expressed on HEK293 cells; also called rat full-length NaPi2b-mCherry on HEK293 cells
T6 sequence (target on cells, looked up): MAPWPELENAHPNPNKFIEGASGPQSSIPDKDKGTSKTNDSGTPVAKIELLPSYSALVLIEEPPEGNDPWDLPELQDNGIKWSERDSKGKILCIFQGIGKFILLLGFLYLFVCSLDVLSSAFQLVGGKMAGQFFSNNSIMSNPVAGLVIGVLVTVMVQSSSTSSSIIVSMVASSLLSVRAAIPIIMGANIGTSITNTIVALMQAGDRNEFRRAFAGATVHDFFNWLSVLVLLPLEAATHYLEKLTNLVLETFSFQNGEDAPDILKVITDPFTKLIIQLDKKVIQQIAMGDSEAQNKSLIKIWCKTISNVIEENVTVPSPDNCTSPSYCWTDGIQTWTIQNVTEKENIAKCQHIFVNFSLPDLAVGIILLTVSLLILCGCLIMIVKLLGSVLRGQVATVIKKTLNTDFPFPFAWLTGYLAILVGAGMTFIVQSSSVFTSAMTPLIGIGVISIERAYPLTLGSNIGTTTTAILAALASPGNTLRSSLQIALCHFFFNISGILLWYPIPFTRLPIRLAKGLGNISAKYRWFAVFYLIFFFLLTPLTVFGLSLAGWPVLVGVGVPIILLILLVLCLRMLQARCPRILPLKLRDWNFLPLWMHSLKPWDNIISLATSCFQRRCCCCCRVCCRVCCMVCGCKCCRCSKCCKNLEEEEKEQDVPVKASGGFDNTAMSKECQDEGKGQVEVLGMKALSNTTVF


Key:
[1] = biological target: T7, recombinant hexameric C1q complement protein (human) (human, UniProt P02745 23-245; P02746 28-253; P02747 29-245); test: HTRF Human C1q Binding Kit (Cisbio), HTRF ratio at 70 nM antibody with the diluent-only background subtracted
T7 construct: also called complement factor C1q

FcγRIIIa (CD16) (V158) = biological target: T8, FcγRIIIa (CD16) (V158) (Homo sapiens, UniProt P08637); test: Lumit FcγRIIIa (V158) Binding Immunoassay (Promega), left panel FcγRIIIa (CD16) (V158), competition with Tracer-LgBiT, n=1
T8 construct: m21 joins both polymorphic variants; also called V158 variant of m21

FcγRIIa (CD32) (H131) = biological target: T1, FcγRIIa (CD32) (H131); test: Lumit FcγRIIa (H131) Binding Immunoassay (Promega), left panel FcγRIIa (CD32) (H131), competition with Tracer-LgBiT, n=1
[2] = biological target: T9, recombinant human FcRn (FcγRn-SmBiT, Lumit assay) (human, UniProt P55899 24-297; P61769 21-119); test: Lumit FcRn Binding Immunoassay (Promega), competition with Tracer-LgBiT for FcRn-SmBiT, n=1
T9 construct: Kit reagent (Promega); not shown: SmBiT label of the kit

[3] = biological target: T10, recombinant human FcγRI (FcγR-SmBiT, Lumit assay) (human, UniProt P12314 16-292); test: Lumit FcγRI Binding Immunoassay (Promega), competition with Tracer-LgBiT for FcγRI-SmBiT, n=1
T10 construct: Kit reagent (Promega); also called FcγRI (CD64); not shown: SmBiT label of the kit

[4] = biological target: T2, purified recombinant human Napi2b …; test: ELISA on immobilized recombinant human Napi2b extracellular loop 2-Fc-6-His, HRP anti-human kappa detection
[5] = biological target: T3, HEK293 cyno-NaPi2B-mCherry; test: flow cytometry on HEK293 cells stably expressing cynomolgus full-length NaPi2b-mCherry, Alexa-dye anti-human IgG H+L secondary antibody, MFI ratio, one-site specific binding fit; the Kd table prints no unit, the concentration axis is in nM
[6] = biological target: T2, purified recombinant human Napi2b …; test: ELISA, coated Napi2b-extracellular-loop2-Fc-6-His, apparent KD from one-site fit
[7] = biological target: T4, human Napi2b-mCherry on HEK293 cells; test: flow cytometry on HEK293 cells stably expressing human full-length NaPi2b-mCherry, Alexa-dye anti-human IgG H+L secondary antibody, MFI ratio, one-site specific binding fit; the Kd table prints no unit, the concentration axis is in nM; second experiment on human cells, run beside the rat cells of FIG. 3D
[8] = biological target: T4, human Napi2b-mCherry on HEK293 cells; test: flow cytometry on HEK293 cells stably expressing human full-length NaPi2b-mCherry, Alexa-dye anti-human IgG H+L secondary antibody, MFI ratio, one-site specific binding fit; the Kd table prints no unit, the concentration axis is in nM
[9] = biological target: T5, human NaPi2b on NaPi2b-positive cell …; test: flow cytometry on OVCAR-3 cells; table column Binding KD (nmol/L), FACS (OVCAR-3)
[10] = biological target: T2, purified recombinant human Napi2b …; test: ELISA on the isolated immobilized protein; table column Binding KD (nmol/L), ELISA
[11] = biological target: T6, HEK293 rat-NaPi2B-mCherry; test: flow cytometry on HEK293 cells stably expressing rat full-length NaPi2b-mCherry, Alexa-dye anti-human IgG H+L secondary antibody, MFI ratio, one-site specific binding fit; the Kd table prints no unit, the concentration axis is in nM

| binding result [1] | IC50 (read off the curve) (FcγRIIIa (CD16) (V158)) [µg/mL] | IC50 (read off the curve) (FcγRIIa (CD32) (H131)) [µg/mL] | IC50 (read off the curve) [2] [µg/mL] | IC50 (read off the curve) [3] [µg/mL] | EC50 (read off the curve) [4] [µg/mL] | Kd [5] [nM] | Kd [6] [µg/mL] | Kd [7] [nM] | Kd [8] [nM] | Kd [9] [nM] | Kd [10] [nM] | Kd [11] [nM] | Binder |
| --- | --- | --- | --- | --- | --- | --- | --- | --- | --- | --- | --- | --- | --- |
| binds | ~2 | ~1 | ~3 | ~0.02 | – | – | – | – | – | – | – | – | Fc-wildtype AV25 (AV25 HC-wt) (antibody, IgG1 with wild-type Fc (L234, L235); also called AV25-wt) heavy: not shown light: DIQMTQSPSSLSASVGDRVTITCSASQDIGNFLNWYQQKPGKTVKVLIYYASSLYSGVPSRFSGSGSGTDYTLTISSLQPEDFATYYCQQYSKLPLTFGQGTKLELKRTVAAPSVFIFPPSDEQLKSGTASVVCLLNNFYPREAKVQWKVDNALQSGNSQESVTEQDSKDSTYSLSSTLTLSKADYEKHKVYACEVTHQGLSSPVTKSFNRGEC |
| – | – | – | – | – | ~0.02 | 4.48 | 0.0221 | 2.85 | 5.43 | 10.8 | 0.147 | 6.88 | parental mAb (parental anti-NaPi2b antibody) (antibody, human IgG1, kappa, L234A L235A, V domains shown, also called parental antibody) VH: EVQLVQSGAEVVKPGASVKMSCKASGYTFTGYNIHWVKQAPGQGLEWIGAIYPGNGDTSYKQKFRGRATLTADTSTSTVYMELSSLRSEDSAVYYCARGETARATFAYWGQGTLVTVSS VL: DIQMTQSPSSLSASVGDRVTITCSASQDIGNFLNWYQQKPGKTVKVLIYYTSSLYSGVPSRFSGSGSGTDYTLTISSLQPEDFATYYCQQYSKLPLTFGQGTKLELKR |
